According to PMC7127234:

Legend:
[1] = test system: Cc1cc(=O)oc2cc(NC(=O)[C@@H]3CCCN3C(=O)CN)ccc12; test: purified protein
[2] = test system: CCCCN1C(=O)c2cccc3c(NC(=O)[C@@H]4CCCN4C(=O)CN)ccc(c23)C1=O; test: purified protein; settings: Gly-Pro group cleaved by DPP-IV to release BAN

## DPP-IV (dipeptidyl peptidase IV) (Homo sapiens)
[1]
  Km: 237.80 µM
[2]
  Km: 42.93 µM
